Data as given in article PMC6325061.

Biological target: phytochrome B (PhyB), amino acids 1-651, biotinylated (Arabidopsis thaliana) (UniProt P14713)
UniProt P14713, sequence (P14713 1-651): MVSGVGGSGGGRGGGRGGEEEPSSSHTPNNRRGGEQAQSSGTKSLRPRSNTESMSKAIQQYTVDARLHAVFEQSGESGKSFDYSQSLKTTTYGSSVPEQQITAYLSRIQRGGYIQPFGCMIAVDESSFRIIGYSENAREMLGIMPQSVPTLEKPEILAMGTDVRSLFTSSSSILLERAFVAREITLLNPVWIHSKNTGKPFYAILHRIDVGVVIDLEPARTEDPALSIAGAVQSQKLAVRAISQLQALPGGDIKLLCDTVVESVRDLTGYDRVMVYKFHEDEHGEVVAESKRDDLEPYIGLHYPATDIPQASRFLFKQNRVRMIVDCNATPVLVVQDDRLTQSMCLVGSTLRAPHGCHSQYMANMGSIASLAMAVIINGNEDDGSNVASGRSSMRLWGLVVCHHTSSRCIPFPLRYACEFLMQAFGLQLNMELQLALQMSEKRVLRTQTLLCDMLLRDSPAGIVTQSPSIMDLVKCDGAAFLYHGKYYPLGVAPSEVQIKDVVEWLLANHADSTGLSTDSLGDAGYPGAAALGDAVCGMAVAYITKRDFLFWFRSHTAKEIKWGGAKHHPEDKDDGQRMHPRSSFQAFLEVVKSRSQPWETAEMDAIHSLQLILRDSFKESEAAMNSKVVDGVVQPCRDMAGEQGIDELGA

For “OptoIntegrin: human integrin αVβ3 with PIF^S inserted between Met180 and Lys181 of the β subunit (construct pJB005) (from UniProt Q8L5W7 1-100; P06756 31-1048) (receptor)”, the cells with paxillin clustering at the cellular periphery, HeLa stably expressing OptoIntegrin on PhyB (1–651)-coated glass, constant 660 nm light was 80 % of cells, the cells with paxillin clustering at the cellular periphery, HeLa stably expressing OptoIntegrin on PhyB (1–651)-coated glass, treated with far-red (740 nm) light was 20 % of cells and the cells with paxillin clusters at the edges, HEK-293T stably expressing OptoIntegrin on PhyB (1–651)-coated glass, constant 660 nm light was 55 % of cells. For the same substance, the cells with paxillin clusters, HEK-293T stably expressing OptoIntegrin on PhyB (1–651)-coated glass, 1.5 h 660 nm then switched to 740 nm for 0.5 h was 40 % of cells.
